Experimental data from paper PMC11011275, “Impact of Protein Nanoparticle Shape on the Immunogenicity of Antimicrobial Glycoconjugate Vaccines” (International Journal of Molecular Sciences, 2024).

Target: the molecule itself
Assay: negative-stain transmission electron microscopy; Hcp1cc nanotubes incubated with the reducing agent DTT (nanorings)

B1: Pseudomonas aeruginosa Hemolysin-coregulated protein 1 double mutant G90C + R157C (Hcp1cc) (natural protein)
chain: MAVDMFIKIGDVKGESKDKTHAEEIDVLAWSWGMSQSGSMHMGGGGGAGKVNVQDLSFTKYIDKSTPNLMMACSSGKHYPQAKLTIRKACGENQVEYLIITLKEVLVSSVSTGGSGGEDRLTENVTLNFAQVQVDYQPQKADGAKDGGPVKYGWNICQNVQA
notes: Hemolysin-coregulated protein 1 (Hcp1) of Pseudomonas aeruginosa with G90C and R157C; printed monomer mass 18.3 kD; 6 copies make one ring; without reducing agent the rings stack into disulfide-bonded nanotubes (up to 8-9 rings as purified, up to 14-18 rings after the oligomerization process); also called Hcp1cc nanoring; Hcp1cc nanotube; source: tangential flow filtration
In the case of B1, the “stoichiometry N” value is reported as 6 monomers.
